This note sets out measurements from patent US20260022170A1 (published 2026).

Assay [1] has as its target human Siglec-9 protein (recombinant; construct not stated) (UniProt Q9Y336 18-344). In words: BLI.
For assay [2], the target named is recombinant human Siglec-9 protein (UniProt Q9Y336 18-348). In words: ELISA.
In assay [3] the target is recombinant Siglec-9 (SinoBiological, 30109-H03H) (UniProt Q9Y336 18-348). Briefly: ELISA.
Chain of recombinant Siglec-9 (SinoBiological, 30109-H03H) (Q9Y336 18-348): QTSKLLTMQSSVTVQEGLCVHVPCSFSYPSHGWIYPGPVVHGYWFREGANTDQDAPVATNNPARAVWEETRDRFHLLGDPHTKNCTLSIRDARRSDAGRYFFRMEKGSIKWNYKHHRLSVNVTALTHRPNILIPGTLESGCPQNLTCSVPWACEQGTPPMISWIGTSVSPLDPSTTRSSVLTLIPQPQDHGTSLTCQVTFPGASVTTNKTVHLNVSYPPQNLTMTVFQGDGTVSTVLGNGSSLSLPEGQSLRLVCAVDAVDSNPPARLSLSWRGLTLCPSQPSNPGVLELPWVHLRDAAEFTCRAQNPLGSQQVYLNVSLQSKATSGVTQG

Chain of human Siglec-9 protein (recombinant; construct not stated) (Q9Y336 18-344): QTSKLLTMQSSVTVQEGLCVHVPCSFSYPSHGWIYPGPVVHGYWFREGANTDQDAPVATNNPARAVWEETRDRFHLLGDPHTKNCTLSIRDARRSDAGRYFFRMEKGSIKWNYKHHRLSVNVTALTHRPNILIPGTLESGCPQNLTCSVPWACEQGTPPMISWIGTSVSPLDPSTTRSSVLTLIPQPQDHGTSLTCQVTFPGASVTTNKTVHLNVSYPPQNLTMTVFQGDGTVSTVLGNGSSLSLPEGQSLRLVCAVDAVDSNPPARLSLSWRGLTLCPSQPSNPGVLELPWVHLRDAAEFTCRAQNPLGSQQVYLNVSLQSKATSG
Chain of recombinant human Siglec-9 protein (Q9Y336 18-348): as the sequence (Q9Y336 18-348) above

B1: anti-Siglec-9 monoclonal antibody clone ED2D5 (antibody, V domains shown)
VH: EVQLVESGGGLVKPGGSLKLSCAASGFTFSDYYMYWVRQTPEKRLEWVATISDGGSDTYYPDNMKGRFTISRDNAKNNLYLQMSSLKSEDTAMYYCTRDPDYDDGRFAYWGQGTLVTVSA
VL: DIVMTQSHKFMSTSVGDRVSITCKASQDVGTVVAWYQQKSGQSPKLLIYWSSTRHTGVPDRFTGSGSGTDFTLTISNVQSEDLADYFCQQYIDYPLSFGAGTKLELK
For B1, the equilibrium dissociation constant (Kd) in assay [1] came out at 38 nM.

B2: Benchmark-3 (antibody, V domains shown)
VH: QSLEESGGRLVKPDETLTITCTVSGIDLSSYDMTWVRQAPGKGLEWIGIIYTGGLTYYASWAKGRFTISKTSTTVDLKITSPTTEDTATYFCAREVGDNNNFWGPGTLVTVSS
VL: DVVMTQTPASVSEPVGGTVTIKCQASESVDSGLAWYHQKPGQPPKLLIYDDTDLASGVPSRFKGSRSGTAHTLTISDLECADAATYYCQYTDYGRTYVGTFGGGTEVVIKG
Regarding B2, the EC50 in assay [2] was determined as 0.157 nM.

B3: humanised CB6B3 (huCB6B3) (antibody, V domains shown)
VH: EVQLVQSGAEVKKPGATVKISCKVSGYTFTDYFIHWVQQAPGKGLEWMGLIDPENDNTMYDPRFQVRVTITADTSTDTAYMELSSLRSEDTAVYYCASTVVARSFDYWGQGTTVTVSS
VL: AIQMTQSPSSLSASVGDRVTITCKASQSVSNDVAWYQQKPGKAPKLLIYYTSNRYTGVPSRFSGSGSGTDFTLTISSLQPEDFATYYCQQDFRSPFTFGGGTKVEIK
For the molecule B3, in assay [3], the EC50 came out at 0.13 nM.

B4: anti-Siglec-9 monoclonal antibody clone CB6B3 (parental mouse antibody) (antibody, V domains shown)
VH: EVQLQQSGAEVVRPGALVKLSCKAAGFNIKDYFIHWVKQRPEQGLEWIGLIDPENDNTMYDPRFQVKASLTADTSSNTAYLQLSRLTSEDAAVYYCASTVVARSFDYWGQGTTLTVSS
VL: SIVMTQTPKFLLVSAGDRVTITCKASQSVSNDVAWYQQKSGQSPKLLIYYTSNRYTGVPDRFTGSGYGTDFTFTISTVQAEDLAVYFCQQDFRSPFTFGAGTKLELK
Turning to B4, the Kd in assay [1] stood at 80 nM.
